Square brackets hold non-standard residues; d marks the D form. Ends that are not written are not given here. Aib = CC(C)(N)C(=O)O
Target: human glucagon receptor (hGR) (human, UniProt P47871 26-477)
Experiment: cell-based or functional assay

human glucagon receptor (hGR), sequence (P47871 26-477): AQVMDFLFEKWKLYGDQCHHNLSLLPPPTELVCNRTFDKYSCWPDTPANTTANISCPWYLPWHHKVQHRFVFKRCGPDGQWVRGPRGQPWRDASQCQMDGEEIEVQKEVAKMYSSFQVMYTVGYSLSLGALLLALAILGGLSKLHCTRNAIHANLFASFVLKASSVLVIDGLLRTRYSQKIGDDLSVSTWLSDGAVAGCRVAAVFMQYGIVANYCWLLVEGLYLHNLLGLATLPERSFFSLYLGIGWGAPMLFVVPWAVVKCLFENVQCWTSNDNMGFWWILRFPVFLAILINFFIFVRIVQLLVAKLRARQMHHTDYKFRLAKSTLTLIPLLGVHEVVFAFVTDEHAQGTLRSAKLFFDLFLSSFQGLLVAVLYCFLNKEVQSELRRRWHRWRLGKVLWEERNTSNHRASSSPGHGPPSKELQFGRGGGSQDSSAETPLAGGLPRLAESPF

hGR stimulated cAMP functional assay, relative EC50: 0.0658 ηM
B1: compound of SEQ ID NO: 2 (peptide)
peptide: YSHGTFTSDVSKYLD[Aib]KKAAEFVAWLLEE-OH
modifications: N-terminus assumed
SMILES: CC(C)C[C@H](NC(=O)[C@H](Cc1c[nH]c2ccccc12)NC(=O)[C@H](C)NC(=O)[C@@H](NC(=O)[C@H](Cc1ccccc1)NC(=O)[C@H](CCC(=O)O)NC(=O)[C@H](C)NC(=O)[C@H](C)NC(=O)[C@H](CCCCN)NC(=O)[C@H](CCCCN)NC(=O)C(C)(C)NC(=O)[C@H](CC(=O)O)NC(=O)[C@H](CC(C)C)NC(=O)[C@H](Cc1ccc(O)cc1)NC(=O)[C@H](CCCCN)NC(=O)[C@H](CO)NC(=O)[C@@H](NC(=O)[C@H](CC(=O)O)NC(=O)[C@H](CO)NC(=O)[C@@H](NC(=O)[C@H](Cc1ccccc1)NC(=O)[C@@H](NC(=O)CNC(=O)[C@H](Cc1c[nH]cn1)NC(=O)[C@H](CO)NC(=O)[C@@H](N)Cc1ccc(O)cc1)[C@@H](C)O)[C@@H](C)O)C(C)C)C(C)C)C(=O)N[C@@H](CC(C)C)C(=O)N[C@@H](CCC(=O)O)C(=O)N[C@@H](CCC(=O)O)C(=O)O

Reference: patent publication US20160311883A1 (Eli Lilly, published 2016)
